# Numbered stars: 1 amine (or outer) side, 2 acyl side, 3 side chain; on linkers, the order of the positions; unused ones are H or OH. Square brackets hold non-standard residues; d marks the D form. Ends that are not written are not given here. * marks the point of attachment. Nbhp = rac-(2,3-dihydroxy-propylamino)-acetic acid, O=C(CN(CC(O)CO[*:3])[*:1])[*:2]; Nhpr = (3-hydroxy-propylamino)acetic acid, O=C(CN(CCCO[*:3])[*:1])[*:2]; Gluc‑Aoa = (2,3,4,5,6-pentahydroxyhexylidenaminooxy)-acetic acid; Paa = piperazin-1-yl-acetic acid, O=C(CN1CCN([*:1])CC1)[*:2]; Sni = (S)-nipecotic acid, O=C([C@H]1CCCN([*:1])C1)[*:2]; Hyp = O=C(O)[C@@H]1C[C@@H](O)CN1; d(β3hL) = CC(C)C[C@@H](N)CC(=O)O; dAoc(2) = CCCCCC[C@@H](N)C(=O)O; 2Thi = N[C@@H](Cc1cccs1)C(=O)O; AR‑314‑102 = not defined here; Aoc(2) = CCCCCC[C@H](N)C(=O)O; NMeL = CN[C@@H](CC(C)C)C(=O)O; AR‑314‑87 = not defined here; Chg = N[C@H](C(=O)O)C1CCCCC1; d(hSer) = N[C@H](CCO)C(=O)O; lys(Me2) = not defined here; orn(Me2) = not defined here; dDab = NCC[C@@H](N)C(=O)O; Nle = CCCC[C@H](N)C(=O)O; Octanoyl = CCCCCCCC(=O)*; 1913 = not defined here; Che = not defined here; Hexanoyl = CCCCCC(=O)*; leu = not defined here; Occ = octanoic acid
# Molecular target: T1, natriuretic peptide receptor-B (human)
# T1 chain: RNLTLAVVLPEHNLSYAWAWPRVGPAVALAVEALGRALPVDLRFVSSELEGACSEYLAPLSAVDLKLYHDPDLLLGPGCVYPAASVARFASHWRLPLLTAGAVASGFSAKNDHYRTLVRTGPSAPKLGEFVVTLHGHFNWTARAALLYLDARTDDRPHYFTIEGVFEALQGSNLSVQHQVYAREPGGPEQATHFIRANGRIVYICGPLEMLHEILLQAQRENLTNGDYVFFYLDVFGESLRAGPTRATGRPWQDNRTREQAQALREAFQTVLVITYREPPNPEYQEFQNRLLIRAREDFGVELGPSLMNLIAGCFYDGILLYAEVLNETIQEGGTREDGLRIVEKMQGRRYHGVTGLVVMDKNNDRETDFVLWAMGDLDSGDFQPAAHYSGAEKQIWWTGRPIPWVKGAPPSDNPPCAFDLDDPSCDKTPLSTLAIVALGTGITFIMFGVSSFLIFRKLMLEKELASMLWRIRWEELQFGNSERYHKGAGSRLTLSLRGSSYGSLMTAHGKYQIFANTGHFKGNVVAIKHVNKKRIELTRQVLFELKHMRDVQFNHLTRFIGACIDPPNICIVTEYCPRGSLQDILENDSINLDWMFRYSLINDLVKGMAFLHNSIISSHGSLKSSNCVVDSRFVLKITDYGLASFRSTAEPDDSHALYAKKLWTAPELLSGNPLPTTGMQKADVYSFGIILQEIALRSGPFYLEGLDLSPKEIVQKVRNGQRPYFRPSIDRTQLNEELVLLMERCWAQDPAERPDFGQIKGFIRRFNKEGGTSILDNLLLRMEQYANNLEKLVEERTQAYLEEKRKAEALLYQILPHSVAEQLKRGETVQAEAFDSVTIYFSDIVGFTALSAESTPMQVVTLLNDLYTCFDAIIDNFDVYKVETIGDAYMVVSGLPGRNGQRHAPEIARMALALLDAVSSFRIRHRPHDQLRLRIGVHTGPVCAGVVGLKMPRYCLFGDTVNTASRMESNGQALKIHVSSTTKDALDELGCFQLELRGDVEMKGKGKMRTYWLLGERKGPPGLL
# Experiment: cell-based or functional assay
row,Binder,"EC50 group, cGMP in GTM-3 cells [µM]"
1,Octanoyl-[Sni]F[orn(Me2)]L[Hyp][NMeL]VRI-NH2 (reading uncertain; also: printed as Occ-Sni-Phe-orn(Me2)-Leu-Hyp-Nml-Val-Arg-Ile-NH2) [JAL-1782],≤ 1
2,Octanoyl-[Sni]F[dDab](Me2)L[Hyp][NMeL]VR[Che] (reading uncertain; also: printed as Occ-Sni-Phe-dab(Me2)-Leu-Hyp-Nml-Val-Arg-Che) [JAL-1784],≤ 1
3,[Occ][Sni]FLL[Hyp][NMeL][2Thi]R[Che] (not fully specified (residue 4); printed as Occ-Sni-Phe-leu-Leu-Hyp-Nml-Thi-Arg-Che; reading uncertain) [JAL-1758],≤ 15
4,Octanoyl-[dA]FGLKLDRI-NH2 [JAL-0738],≤ 15
5,Octanoyl-[Sni]F[leu]L[Hyp][NMeL][Chg]R[Che] (reading uncertain; also: printed as Occ-Sni-Phe-leu-Leu-Hyp-Nml-Chg-Arg-Che) [JAL-1763],≤ 15
6,[AR‑314‑87][leu]L[Hyp][NMeL]DRI-NH2 (reading uncertain; also: printed as (AR-314-87)-leu-Leu-Hyp-Nml-Asp-Arg-Ile-NH2) [JAL-1765-2],≤ 1
7,Octanoyl-[d(hSer)]FLL[Hyp][NMeL]DRI-NH2 (not fully specified (some residues); printed as Occ-hse-Phe-leu-Leu-Hyp-Nml-Asp-Arg-Ile-NH2) [JAL-1801],≤ 5
8,Octanoyl-[Sni]F[lys(Me2)]L[Hyp][NMeL]DR[Che] (reading uncertain; also: printed as Occ-Sni-Phe-lys(Me2)-Leu-Hyp-Nml-Asp-Arg-Che) [JAL-1777],≤ 1
9,1913-[Aoc(2)][Sni]FLL[Hyp][NMeL]DRI-NH2 (not fully specified (some residues); printed as (1913)-Hgl-Sni-Phe-leu-Leu-Hyp-Nml-Asp-Arg-Ile-NH2; reading uncertain) [JAL-1804],≤ 5
10,Octanoyl-[Nbhp]FLL[Hyp][NMeL]DRI-NH2 (not fully specified (some residues); printed as Occ-Nbhp-Phe-leu-Leu-Hyp-Nml-Asp-Arg-Ile-NH2) [JAL-1799],≤ 5
11,Octanoyl-[Sni]F[dDab](Me2)L[Hyp][NMeL]DRI-NH2 [JAL-1785],≤ 1
12,Octanoyl-[Sni]F[orn(Me2)]L[Hyp][NMeL]DR[Che] (reading uncertain; also: printed as Occ-Sni-Phe-orn(Me2)-Leu-Hyp-Nml-Asp-Arg-Che) [JAL-1776],≤ 1
13,Octanoyl-[Nhpr]FLL[Hyp][NMeL]DRI-NH2 (not fully specified (some residues); printed as Occ-Nhpr-Phe-leu-Leu-Hyp-Nml-Asp-Arg-Ile-NH2) [JAL-1798],≤ 5
14,Octanoyl-[Sni]F[lys(Me2)]L[Hyp][NMeL]VR[Che] (reading uncertain; also: printed as Occ-Sni-Phe-lys(Me2)-Leu-Hyp-Nml-Val-Arg-Che) [JAL-1779],≤ 1
15,{Gluc‑Aoa}-[Aoc(2)][Sni]FLL[Hyp][NMeL]DRI-NH2 (not fully specified (some residues); printed as Gluc-Aoa-Hgl-Sni-Phe-leu-Leu-Hyp-Nml-Asp-Arg-Ile-NH2) [JAL-1802],≤ 5
16,Hexanoyl-[dA][dA]F[Paa]KLDRI-NH2 [JAL-0731],≤ 15
17,[Occ][Sni]FLL[Hyp][NMeL][Nle]R[Che] (not fully specified (residue 4); printed as Occ-Sni-Phe-leu-Leu-Hyp-Nml-Nle-Arg-Che; reading uncertain) [JAL-1755],≤ 15
18,[AR‑314‑102][leu]L[Hyp][NMeL]DRI-NH2 (reading uncertain; also: printed as (AR-314-102)-leu-Leu-Hyp-Nml-Asp-Arg-Ile-NH2) [JAL-1774],≤ 1
19,{Gluc‑Aoa}-[dAoc(2)][Sni]FLL[Hyp][NMeL]DRI-NH2 (not fully specified (some residues); printed as Gluc-Aoa-hgl-Sni-Phe-leu-Leu-Hyp-Nml-Asp-Arg-Ile-NH2) [JAL-1803],≤ 1
20,Octanoyl-[Sni]F[dDab](Me2)L[Hyp][NMeL]VRI-NH2 [JAL-1786],≤ 5
21,Octanoyl-[Sni]F[orn(Me2)]L[Hyp][NMeL]VR[Che] (reading uncertain; also: printed as Occ-Sni-Phe-orn(Me2)-Leu-Hyp-Nml-Val-Arg-Che) [JAL-1778],≤ 5
22,[Occ][Sni]FLL[Hyp][NMeL][d(β3hL)]R[Che] (not fully specified (residue 4); printed as Occ-Sni-Phe-leu-Leu-Hyp-Nml-Ble-Arg-Che; reading uncertain) [JAL-1756],≤ 5
23,Octanoyl-[Sni]F[lys(Me2)]L[Hyp][NMeL]DRI-NH2 (reading uncertain; also: printed as Occ-Sni-Phe-lys(Me2)-Leu-Hyp-Nml-Asp-Arg-Ile-NH2) [JAL-1781],≤ 5
24,Octanoyl-[Sni]F[dK](Me2)L[Hyp][NMeL]VRI-NH2 [JAL-1783],≤ 15
25,Octanoyl-SFLL[Hyp][NMeL]DRI-NH2 (not fully specified (some residues); printed as Occ-ser-Phe-leu-Leu-Hyp-Nml-Asp-Arg-Ile-NH2) [JAL-1800],≤ 5

# From US9187525B2, “Methods of treating ophthalmic diseases using NPR-B agonists” (Shire Orphan Therapies GmbH, dated 2015)
